Experimental findings from US9249224B2 (RINAT NEUROSCIENCE CORP., priority 2011, dated 2016) are described below.

For one assay, the target named is T1, human GHR (Homo sapiens, UniProt P10912).
T1 construct: his-tagged monomers of amino acids 31-235 of the extracellular domain of the human or cyno GHR
T1 sequence (P10912 49-253): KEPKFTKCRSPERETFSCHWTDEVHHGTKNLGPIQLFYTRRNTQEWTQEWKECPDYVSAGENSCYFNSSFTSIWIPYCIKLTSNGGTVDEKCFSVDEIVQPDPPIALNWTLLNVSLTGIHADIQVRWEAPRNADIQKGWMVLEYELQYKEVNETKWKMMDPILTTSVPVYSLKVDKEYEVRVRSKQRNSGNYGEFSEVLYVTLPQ
The assay can be described thus: Biacore kinetics and affinity, immobilized Fab, human GHR analyte, 37° C. Format: binding. The following applies: Fab captured on anti-human kappa surface. The protocol:
(§1) The affinity of GHR antibody SS1 Fab to human and cyno GHR was measured on a Biacore™ T200 biosensor (GE Lifesciences™, Piscataway N.J.).
(§2) An anti-human kappa sensor chip was prepared by activating all flow cells of a Biacore™ CM4 sensor chip with a 1:1 (v/v) mixture of 400 mM EDC and 100 mM NHS for 7 minutes, at a flow rate of 10 μL/min. An anti-human kappa reagent (goat F(ab′)2 fragment anti-human kappa, Southern Biotech Catalog #2063-01) was diluted to 50 μg/mL in 10 mM sodium acetate pH 4.5 and injected on all flow cells for 7 minutes at 20 μL/min. All flow cells were blocked with 100 mM ethylenediamine in 150 mM borate buffer pH 8.5 for 7 minutes at 10 μL/min.
(§3) The kinetics assay was run using a methodology with varying dissociation times as described in Katsamba et al., supra. Fabs were captured onto downstream flow cells (flow cells 2, 3 and 4) at 2 μg/mL at a flow rate of 10 μL/min for 2 minutes. Different Fabs were captured on each flow cell. Flow cell 1 was used as a reference surface. […] After the analyte injection, dissociation was monitored for 30 minutes (for the 133 nM and 400 nM GHR cycles) or 60 seconds (all other cycles) followed by regeneration with three 30-second injections of 10 mM glycine pH 1.7. A 6-membered dilution series of GHR was analyzed using this method, where the top concentration was 400 nM and the dilution factor was 3-fold. […]
Background: SPR reads the build-up and loss of mass on a sensor chip optically.

For the next assay, the target named is T2, hGHR-hFc (Homo sapiens, UniProt P10912).
T2 construct: purchased R&D Systems 1210-GR
T2 sequence (P10912 with tags, fused parts or gaps limits assumed): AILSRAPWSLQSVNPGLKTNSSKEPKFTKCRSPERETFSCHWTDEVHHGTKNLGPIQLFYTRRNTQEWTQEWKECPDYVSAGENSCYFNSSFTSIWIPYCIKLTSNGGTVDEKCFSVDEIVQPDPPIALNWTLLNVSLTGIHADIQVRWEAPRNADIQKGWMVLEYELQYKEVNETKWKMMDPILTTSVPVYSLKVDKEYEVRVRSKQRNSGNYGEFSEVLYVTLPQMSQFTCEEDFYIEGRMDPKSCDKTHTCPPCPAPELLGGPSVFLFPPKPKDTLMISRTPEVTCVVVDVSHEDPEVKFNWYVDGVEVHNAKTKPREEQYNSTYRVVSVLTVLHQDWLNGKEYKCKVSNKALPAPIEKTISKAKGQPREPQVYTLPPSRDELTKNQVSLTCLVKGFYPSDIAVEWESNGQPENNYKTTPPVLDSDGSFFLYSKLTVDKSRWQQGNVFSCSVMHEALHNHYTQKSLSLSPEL
As to the kind of experiment: Biacore kinetics and affinity, immobilized hGHR-hFc, Fab analyte, 37° C. Format: binding. The following applies: hGHR-hFc captured on anti-human Fc surface. The protocol:
as §1
An anti-human Fc sensor chip was prepared by activating all flow cells of a Biacore™ CM4 sensor chip with a 1:1 (v/v) mixture of 400 mM EDC and 100 mM NHS for 7 minutes, at a flow rate of 10 μL/min. An anti-human Fc reagent (goat F(ab′)2 fragment to human IgG Fc, Cappel Catalog #55053) was diluted to 60 μg/mL in 10 mM sodium acetate pH 5.0 and injected on all flow cells for 7 minutes at 20 μL/min. All flow cells were blocked with 100 mM ethylenediamine in 150 mM borate buffer pH 8.5 for 7 minutes at 10 μL/min.
The kinetics assay was run using a methodology with varying dissociation times as described in Katsamba et al., supra. The hGHR-hFc fusion protein (R&D Systems™ Catalog#1210-GR) was captured onto downstream flow cells at 2 μg/mL at a flow rate of 10 μL/min for 30 seconds, 1 minute and 2 minutes on flow cells 2, 3 and 4, respectively. Flow cell 1 was used as a reference surface. […] After the analyte injection, dissociation was monitored for 30 minutes (400 nM Fab cycle) or 60 seconds (all other cycles) followed by regeneration with two 30-second injections of 75 mM phosphoric acid. A 5-membered dilution series of Fab was analyzed using this method, where the top concentration was 400 nM and the dilution factor was 3-fold. […]

The next assay relates to cyno GHR. As to the kind of experiment: Biacore kinetics and affinity, immobilized Fab, cyno GHR analyte, 37° C. Format: binding, cynomolgus monkey. The following applies: Fab captured on anti-human kappa surface. The protocol:
as §1, §2, §3

cyno GHR, sequence (as listed by the source): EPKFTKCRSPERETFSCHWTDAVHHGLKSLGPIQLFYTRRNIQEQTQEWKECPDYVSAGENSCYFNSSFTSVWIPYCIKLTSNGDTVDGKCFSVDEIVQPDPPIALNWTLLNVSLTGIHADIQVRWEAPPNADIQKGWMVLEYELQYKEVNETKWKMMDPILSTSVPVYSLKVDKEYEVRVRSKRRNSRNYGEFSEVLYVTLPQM

B1: SS1 Fab: Fab of GHR antibody SS1 (antibody, V domains shown)
VH: EVQLVESGGGLVKPGGSLRLSCAASGFTFSDAWMDWVRQAPGKGLEWVAEIRSKANYHATYYAESVKGRFTISRDDSKNTLYLQMNSLKTEDTAVYYCTLIRDYWGQGTLVTVSS
VL: EIVLTQSPGTLSLSPGERATLSCTATSSVSSSYLNWYQQKPGQAPRLLIYSTSNLASGIPDRFSGSGSGTDFTLTISRLEPEDFAVYYCHQYHRSTPTFGGGTKVEIK
In the case of B1, the “ka” value in the assay with human GHR is 138000 M⁻¹ s⁻¹; with hGHR-hFc, 374000 M⁻¹ s⁻¹; in the assay on cyno GHR it was 182000 M⁻¹ s⁻¹. Moreover, the “kd” value in the assay with human GHR was determined as 0.000215 s⁻¹; with hGHR-hFc, 0.000359 s⁻¹; at cyno GHR, 0.000576 s⁻¹.
